{
  "source": "paper PMC8635412",
  "about": "“Identification of disease-linked hyperactivating mutations in UBE3A through large-scale functional variant analysis” (Nature Communications, 2021)",
  "target": "T1, N-terminal fluorescein-labeled ubiquitin (UniProt P0CG48 1-76, fluorescein on the N-terminus)",
  "T1 construct": "source: bought: Anaspec",
  "assay": "fluorescence polarisation; 1 uM fluorescein-labeled ubiquitin with varied concentrations of UBE3A HECT domain, 384-well plate, 30 °C; one-site specific binding model",
  "settings": "both partners purified",
  "data": [
    {"binder": "UBE3A HECT domain, wild type (domain or fragment, human, UniProt Q05086-2 495-852, looked up, UBE3A, human, HECT domain; residue numbers follow human UBE3A isoform I (NP_001361390.1); Cloned into pRSFDuet-1 with an octa-histidine-GST double tag and a TEV site; also called WT HECT domain; WT UBE3A; not shown: His8, N-terminal, cleaved; GST, N-terminal, cleaved) QLNPYLRLKVRRDHIIDDALVRLEMIAMENPADLKKQLYVEFEGEQGVDEGGVSKEFFQLVVEEIFNPDIGMFTYDESTKLFWFNPSSFETEGQFTLIGIVLGLAIYNNCILDVHFPMVVYRKLMGKKGTFRDLGDSHPVLYQSLKDLLEYEGNVEDDMMITFQISQTDLFGNPMMYDLKENGDKIPITNENRKEFVNLYSDYILNKSVEKQFKAFRRGFHMVTNESPLKYLFRPEEIELLICGSRNLDFQALEETTEYDGGYTRDSVLIREFWEIVHSFTDEQKRLFLQFTTGTDRAPVGGLGKLKMIIAKNGPDTERLPTSHTCFNVLLLPEYSSKEKLKERLLKAITYAKGFGML", "values": [
      {"measurement": "Kd", "value": "65.7 ± 28.5", "unit": "µM"}
    ]},
    {"binder": "UBE3A HECT domain Q588E (domain or fragment, human, UniProt Q05086-2 1-852, looked up, UBE3A, human, HECT domain with the patient variant Q588E; residue numbers follow human UBE3A isoform I (NP_001361390.1); Made by site-directed mutagenesis of the m1 construct; Q588E is a variant found in individuals (ClinVar); also called Q588E HECT domain; UBE3A Q588E; not shown: His8, N-terminal, cleaved; GST, N-terminal, cleaved) QLNPYLRLKVRRDHIIDDALVRLEMIAMENPADLKKQLYVEFEGEQGVDEGGVSKEFFQLVVEEIFNPDIGMFTYDESTKLFWFNPSSFETEGEFTLIGIVLGLAIYNNCILDVHFPMVVYRKLMGKKGTFRDLGDSHPVLYQSLKDLLEYEGNVEDDMMITFQISQTDLFGNPMMYDLKENGDKIPITNENRKEFVNLYSDYILNKSVEKQFKAFRRGFHMVTNESPLKYLFRPEEIELLICGSRNLDFQALEETTEYDGGYTRDSVLIREFWEIVHSFTDEQKRLFLQFTTGTDRAPVGGLGKLKMIIAKNGPDTERLPTSHTCFNVLLLPEYSSKEKLKERLLKAITYAKGFGML", "values": [
      {"measurement": "Kd", "value": "18 ± 1.5", "unit": "µM"}
    ]}
  ]
}
